This passage reports protein stability index results from the supplement of paper PMC10567573.

B1: RHOBTB3 (parent)
chain: GGADIIVIKYNVNDKFSFHEVKDN
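Further: lentivirally expressed fusions sorted by FACS into six bins by GFP to DsRed ratio, PSI derived from sequencing read proportions per bin multiplied by bin number.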

This series covers variants of B1. In words: protein stability index of a GFP-peptide fusion (GPS, HEK-293T) (PSI 1-6); higher = more stable. The settings on record: c terminus: a fixed tail appended.
On to GFADIIVIKYNVNDKFSFHEVKDN [G2F], for which the protein stability index was found to be 3.68.

Take GVADIIVIKYNVNDKFSFHEVKDN [G2V]: the protein stability index is 1.64.

On to GCADIIVIKYNVNDKFSFHEVKDN [G2C], for which the protein stability index stood at 1.97.

GMADIIVIKYNVNDKFSFHEVKDN [G2M]: the protein stability index was 3.43.

Consider GTADIIVIKYNVNDKFSFHEVKDN [G2T], for which the protein stability index came to 2.38.

As to GLADIIVIKYNVNDKFSFHEVKDN [G2L], the protein stability index worked out at 1.71.

In the case of GPADIIVIKYNVNDKFSFHEVKDN [G2P], the protein stability index stood at 1.52.

For GEADIIVIKYNVNDKFSFHEVKDN [G2E], the protein stability index is 1.98.

For GHADIIVIKYNVNDKFSFHEVKDN [G2H], the protein stability index is 3.5.

GRADIIVIKYNVNDKFSFHEVKDN [G2R]: the protein stability index was found to be 2.76.

Regarding GSADIIVIKYNVNDKFSFHEVKDN [G2S], the protein stability index came out at 1.62.

In the case of GQADIIVIKYNVNDKFSFHEVKDN [G2Q], the protein stability index came to 1.86.

On to GIADIIVIKYNVNDKFSFHEVKDN [G2I], for which the protein stability index worked out at 1.52.

In the case of GKADIIVIKYNVNDKFSFHEVKDN [G2K], the protein stability index was 2.86.

As for GYADIIVIKYNVNDKFSFHEVKDN [G2Y], the protein stability index came to 2.69.

As to GGADHIVIKYNVNDKFSFHEVKDN [I5H], the protein stability index came out at 2.39.

Turning to GGADFIVIKYNVNDKFSFHEVKDN [I5F], the protein stability index is 1.78.

As for GGADEIVIKYNVNDKFSFHEVKDN [I5E], the protein stability index is 3.59.

With GGADSIVIKYNVNDKFSFHEVKDN [I5S], the protein stability index turned out to be 3.31.

Take GGADQIVIKYNVNDKFSFHEVKDN [I5Q]: the protein stability index is 3.45.

Turning to GGADYIVIKYNVNDKFSFHEVKDN [I5Y], the protein stability index was 1.78.

Regarding GGADRIVIKYNVNDKFSFHEVKDN [I5R], the protein stability index was 2.34.

For GGADGIVIKYNVNDKFSFHEVKDN [I5G], the protein stability index was 2.82.

For GGADLIVIKYNVNDKFSFHEVKDN [I5L], the protein stability index came out at 3.18.

As for GGADDIVIKYNVNDKFSFHEVKDN [I5D], the protein stability index stood at 4.15.

With GGADAIVIKYNVNDKFSFHEVKDN [I5A], the protein stability index stood at 1.81.

For GGADTIVIKYNVNDKFSFHEVKDN [I5T], the protein stability index amounted to 2.47.

For the variant GGADCIVIKYNVNDKFSFHEVKDN [I5C], the protein stability index is 1.74.

For GGADMIVIKYNVNDKFSFHEVKDN [I5M], the protein stability index was found to be 2.68.

On to GGADNIVIKYNVNDKFSFHEVKDN [I5N], for which the protein stability index was 3.69.

As to GGADWIVIKYNVNDKFSFHEVKDN [I5W], the protein stability index worked out at 2.59.

Regarding GGADPIVIKYNVNDKFSFHEVKDN [I5P], the protein stability index is 3.58.

GGADKIVIKYNVNDKFSFHEVKDN [I5K]: the protein stability index is 2.67.

For GGADVIVIKYNVNDKFSFHEVKDN [I5V], the protein stability index turned out to be 1.43.

As for GGADIIDIKYNVNDKFSFHEVKDN [V7D], the protein stability index worked out at 4.15.

As for GGADIIIIKYNVNDKFSFHEVKDN [V7I], the protein stability index amounted to 2.46.

As to GGADIILIKYNVNDKFSFHEVKDN [V7L], the protein stability index was 2.3.

GGADIIGIKYNVNDKFSFHEVKDN [V7G]: the protein stability index worked out at 2.5.

With GGADIIEIKYNVNDKFSFHEVKDN [V7E], the protein stability index came to 3.28.

In the case of GGADIIHIKYNVNDKFSFHEVKDN [V7H], the protein stability index came to 2.28.

Take GGADIIAIKYNVNDKFSFHEVKDN [V7A]: the protein stability index amounted to 2.17.

Regarding GGADIIKIKYNVNDKFSFHEVKDN [V7K], the protein stability index worked out at 2.33.

With GGADIICIKYNVNDKFSFHEVKDN [V7C], the protein stability index is 1.79.

With GGADIIFIKYNVNDKFSFHEVKDN [V7F], the protein stability index came out at 3.21.

With GGAWIIVIKYNVNDKFSFHEVKDN [D4W], the protein stability index is 2.41.

Turning to GGAAIIVIKYNVNDKFSFHEVKDN [D4A], the protein stability index was found to be 2.91.

Turning to GGARIIVIKYNVNDKFSFHEVKDN [D4R], the protein stability index was 4.21.

In the case of GGALIIVIKYNVNDKFSFHEVKDN [D4L], the protein stability index came out at 1.8.

Turning to GGATIIVIKYNVNDKFSFHEVKDN [D4T], the protein stability index was determined as 3.79.

Consider GGASIIVIKYNVNDKFSFHEVKDN [D4S], for which the protein stability index stood at 2.66.

Take GGACIIVIKYNVNDKFSFHEVKDN [D4C]: the protein stability index turned out to be 2.96.

Turning to GGAEIIVIKYNVNDKFSFHEVKDN [D4E], the protein stability index was 4.16.

With GGAMIIVIKYNVNDKFSFHEVKDN [D4M], the protein stability index stood at 3.48.

With GGAGIIVIKYNVNDKFSFHEVKDN [D4G], the protein stability index was 3.68.

For GGAKIIVIKYNVNDKFSFHEVKDN [D4K], the protein stability index was 4.09.

In the case of GGAPIIVIKYNVNDKFSFHEVKDN [D4P], the protein stability index came to 3.07.

As for GGAHIIVIKYNVNDKFSFHEVKDN [D4H], the protein stability index turned out to be 2.21.

Take GGAVIIVIKYNVNDKFSFHEVKDN [D4V]: the protein stability index was determined as 3.66.

Turning to GGAFIIVIKYNVNDKFSFHEVKDN [D4F], the protein stability index stood at 1.97.

Regarding GGANIIVIKYNVNDKFSFHEVKDN [D4N], the protein stability index came out at 2.47.

Turning to GGAIIIVIKYNVNDKFSFHEVKDN [D4I], the protein stability index stood at 3.04.

For GGEDIIVIKYNVNDKFSFHEVKDN [A3E], the protein stability index was 1.74.

On to GGFDIIVIKYNVNDKFSFHEVKDN [A3F], for which the protein stability index is 3.37.

On to GGMDIIVIKYNVNDKFSFHEVKDN [A3M], for which the protein stability index came out at 2.03.

Turning to GGDDIIVIKYNVNDKFSFHEVKDN [A3D], the protein stability index came out at 2.85.

Take GGHDIIVIKYNVNDKFSFHEVKDN [A3H]: the protein stability index is 3.04.

As to GGSDIIVIKYNVNDKFSFHEVKDN [A3S], the protein stability index came out at 1.74.

Regarding GGKDIIVIKYNVNDKFSFHEVKDN [A3K], the protein stability index is 2.65.

For GGWDIIVIKYNVNDKFSFHEVKDN [A3W], the protein stability index worked out at 2.05.

Consider GGLDIIVIKYNVNDKFSFHEVKDN [A3L], for which the protein stability index came to 2.64.

For the variant GGIDIIVIKYNVNDKFSFHEVKDN [A3I], the protein stability index is 3.1.

Consider GGQDIIVIKYNVNDKFSFHEVKDN [A3Q], for which the protein stability index was 2.73.

Regarding GGPDIIVIKYNVNDKFSFHEVKDN [A3P], the protein stability index is 2.35.

With GGTDIIVIKYNVNDKFSFHEVKDN [A3T], the protein stability index is 2.21.

On to GGYDIIVIKYNVNDKFSFHEVKDN [A3Y], for which the protein stability index turned out to be 2.96.

Turning to QGADIIVIKYNVNDKFSFHEVKDN [G1Q], the protein stability index is 2.37.

Take YGADIIVIKYNVNDKFSFHEVKDN [G1Y]: the protein stability index amounted to 2.04.

Turning to VGADIIVIKYNVNDKFSFHEVKDN [G1V], the protein stability index worked out at 2.1.

In the case of FGADIIVIKYNVNDKFSFHEVKDN [G1F], the protein stability index is 2.69.

With SGADIIVIKYNVNDKFSFHEVKDN [G1S], the protein stability index is 3.49.

For the variant AGADIIVIKYNVNDKFSFHEVKDN [G1A], the protein stability index was found to be 2.07.

As for WGADIIVIKYNVNDKFSFHEVKDN [G1W], the protein stability index amounted to 1.54.

TGADIIVIKYNVNDKFSFHEVKDN [G1T]: the protein stability index is 2.99.

Consider NGADIIVIKYNVNDKFSFHEVKDN [G1N], for which the protein stability index turned out to be 2.96.

For the variant PGADIIVIKYNVNDKFSFHEVKDN [G1P], the protein stability index is 2.18.

For DGADIIVIKYNVNDKFSFHEVKDN [G1D], the protein stability index is 2.67.

Take HGADIIVIKYNVNDKFSFHEVKDN [G1H]: the protein stability index turned out to be 2.3.

With KGADIIVIKYNVNDKFSFHEVKDN [G1K], the protein stability index is 2.99.

Turning to LGADIIVIKYNVNDKFSFHEVKDN [G1L], the protein stability index came to 2.44.

In the case of CGADIIVIKYNVNDKFSFHEVKDN [G1C], the protein stability index was determined as 2.27.

With MGADIIVIKYNVNDKFSFHEVKDN [G1M], the protein stability index worked out at 1.97.

Regarding IGADIIVIKYNVNDKFSFHEVKDN [G1I], the protein stability index was determined as 2.53.

In the case of EGADIIVIKYNVNDKFSFHEVKDN [G1E], the protein stability index came out at 2.13.

For RGADIIVIKYNVNDKFSFHEVKDN [G1R], the protein stability index stood at 3.04.
